{"source": "patent US9750814B2", "about": "“Polypeptides to inhibit epstein barr viral protein BHRF1 and B cell lymphoma family proteins” (priority 2014, dated 2017)", "key": {"BHRF1": {"target": "BHRF1 (Epstein-Barr virus, UniProt P03182)", "sequence (P03182 1-161)": "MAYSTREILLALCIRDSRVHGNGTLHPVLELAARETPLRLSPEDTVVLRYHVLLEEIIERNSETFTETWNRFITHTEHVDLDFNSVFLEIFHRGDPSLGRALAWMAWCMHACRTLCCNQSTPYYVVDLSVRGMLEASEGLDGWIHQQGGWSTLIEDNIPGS", "details": "FACS sort for binding signal after 400 nM BHRF1", "text": "This was reduced to 74 designs (Indexes-01 to 74) after filtering for strong interface binding energy, low monomer folding energy and a low number of buried unsatisfied hydrogen bonding atoms. Barcoded genes were synthesized (Table 3) and the library transformed in to yeast for surface display (6×10^5 transformants). […] The library was sorted by a single round of FACS for cells expressing surface protein (FIG. 1C; lane 1), for the 2% of cells with highest expression (lane 2), and for cells showing binding signal after incubation with 100 nM (lane 3) or 400 nM BHRF1 (lane 4). DNA from the naive and post-sorted populations was harvested and sequenced by Illumina deep sequencing, and the recovery of each designed sequence determined.\nBinding of biotinylated protein to the yeast surface is detected with phycoerythrin-conjugated streptavidin (Invitrogen).\nYeast cells were sorted on a BD Influx cytometer operated by Spigot (BD Biosciences) and recovered in SDCAA media at 30° C. overnight. Yeast were lysed with 125 U/ml Zymolase at 37° C. for 5 h, and DNA was harvested (Zymoprep kit from Zymo Research). […] DNA was deep sequenced with a MiSeq™ sequencer (Illumina) and sequences were analyzed with adapted scripts from Enrich (Fowler et al., 2011). […]"}, "colon cancer cell lines": {"system": "colon cancer cell lines", "experiment": "Long-term survival assay, colon cancer cell lines", "assay_type": "cell-based, human", "details": "colon cancer lines", "experimental": "Inducible αMCL1 and αBFL1 constructs were generated in a lentiviral vector described in Aubrey et al. (2015). Ligand expression is linked via the T2A peptide to mCherry™ fluorescent reporter protein. […] Viral supernatants were then filtered prior to target cell transduction. […] For infection of MEFs and colon cancer cell lines, equal volume of virus-containing supernatant was added to target cells pre-incubated with 10 ng/μL polybrene, and centrifuged at 2500 rpm for 2 hours at 32° C. Following spin inoculation, cells were then incubated overnight at 37° C. Cells expressing the doxycycline-inducible constructs were then selected by sorting mCherry^+ve cells. MEFs were maintained in DME Kelso medium supplemented with 10% (v/v) FBS, 250 mM L-asparagine and […] 2-mercaptoethanol. Colon cancer cell lines were maintained in DMEM/F-12 supplemented with 10% (v/v) FBS.\nMEF and colon cancers were seeded in 6-well tissue culture plates in 2 mL culture media at 150 cells per mL. The next day and every 48 hours following, doxycycline was added at a final concentration of 1 μg/mL to each well, while nothing was added to control wells."}, "[1]": {"system": "Bim association with pro-survival homologs in HeLa cells", "experiment": "Bim co-immunoprecipitation in HeLa cells", "assay_type": "cell-based, human", "experimental": "Cells were harvested, washed with PBS, and extracted with ice-cold Chaps buffer (40 mM Tris-HCl, pH 7.5, 150 mM NaCl, 1 mM EDTA, 2% CHAPS, and Complete Protease Inhibitors [Roche]) for 20 minutes, on ice. Extracts were spun down at 10,000 g for 10 min and supernatants were removed and used for SDS-PAGE analysis. Expression of proteins of interest was analyzed using antibodies against Bcl-2, Bcl-xL, Mcl-1 (as above), Bfl-1 (ProsSci, Inc.), Bim (BD Biosciences), and tubulin (SigmaAldrich). For immunoprecipitation experiments, 1,000 μg protein lysates were pre-cleared and then incubated with 3 μg Bim antibody for 2 hours at 4° C., followed by addition of Protein A/G Plus agarose beads (Santa Cruz Biotechnology) and overnight incubation with rotation at 4° C. Negative control reactions used normal IgG. Immunoprecipitates were washed four times with lysis buffer and eluted with loading buffer at 95° C., 2 times for 10 min, followed by SDS-PAGE analysis."}, "Mcl-1-dependent MEF line": {"system": "Mcl-1-dependent MEF line", "experiment": "Long-term survival (colony) assay, Mcl-1-dependent MEFs", "assay_type": "cell-based, mouse", "details": "seven day colony survival, doxycycline-induced expression", "excerpt": "Mouse embryonic fibroblasts were generated from E13-E14.5 embryos derived from CreERT2/Bcl-x^fl/fl/Mcl-I^fl/fl C57BL/6 mice (Kelly et al., 2014) and immortalized (at passage 2-4) with SV40 large T antigen. Retroviral expression constructs in the pMIG vector (Murine Stem Cell Virus-IRES-GFP) expressing each FLAG-tagged pro-survival protein were transiently transfected using LIPOFECTAMINE™ (Invitrogen), into Phoenix ecotropic packaging cells. Filtered virus-containing supernatants were used to infect the MEFs by spin inoculation as previously described (Lee et al., 2008). Cells stably expressing each pro-survival protein were selected by sorting GFP^+ve cells 24 hours after spin inoculation and protein expression verified by Western blotting using an anti-FLAG antibody. Following verification of exogenous pro-survival protein expression, each cell line was treated with 1 μM Tamoxifen (Sigma-Aldrich) to enable deletion of endogenous Mcl-1 and Bcl-xL. Deletion of endogenous Mcl-1 and Bcl-xL was shown by Western blotting using anti-Mcl-1 (Rockland Clone, 600-401-394) and anti-Bcl-xL (BD Transduction Laboratories Clone 44/Bcl-x) antibodies. Cells were maintained in DME Kelso medium supplemented with 10% (v/v) fetal bovine serum, 250 mM L-asparagine and […] 2-mercaptoethanol.\nInducible αMCL1 and αBFL1 constructs were generated in a lentiviral vector described in Aubrey et al. (2015). […]"}, "BCL2 family proteins": {"system": "BCL2 family proteins", "experiment": "BLI specificity across BCL2 family proteins (next tightest binder versus intended target)", "set-up": "species or system human", "details": "fold weaker affinity for next tightest binding BCL2 family protein versus intended target"}, "Mcl-1": {"target": "T1, Mcl-1 (Homo sapiens, UniProt Q07820)", "T1 construct": "Mcl-1 a.a; made in house; host or cells: E. coli BL21* (DE3)", "T1 sequence (Q07820 172-327)": "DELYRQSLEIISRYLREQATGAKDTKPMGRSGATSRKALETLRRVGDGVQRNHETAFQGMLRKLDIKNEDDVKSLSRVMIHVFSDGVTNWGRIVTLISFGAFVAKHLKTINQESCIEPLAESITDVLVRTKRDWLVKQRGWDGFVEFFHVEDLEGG", "experiment": "Bio-layer interferometry (BLI), immobilized Mcl-1", "assay_type": "binding", "details": "BLI titrations", "excerpt": "11-175 (NP_065129.1), Mcl-1 a.a. […] For later BLI analysis, Bcl-B and Bfl-1 were genetically fused to C-terminal maltose-binding-protein with an avi-6his tag for improved solution properties. Codon usage was optimized for E. coli expression. […] The genes for individually-tested designed proteins were assembled from oligos (Hoover and Lubkowski, 2002) and cloned into pET29b (NdeI-XhoI sites) with C-terminal 6his tags for purification from E. coli, or cloned into PETCON (NdeI-XhoI sites; (Fleishman et al., 2011)) for yeast surface expression. Alternative tags were added using PCR methods. Point mutations were made by overlapping PCR (Procko et al., 2013). Error-prone PCR with an average error rate of 1.3 amino acid substitutions per clone used GeneMorph II Random Mutagenesis (Agilent Technologies).\nPurified avi-6his-tagged ligands (20 μM) in reaction buffer (250 mM potassium glutamate, 20 mM Tris-Cl [pH 7.5], 50 mM bicine [pH 8.3], 10 mM ATP, 10 mM MgOAc, 100 μM d-biotin) were enzymatically biotinylated with 150 U/μl BirA (Avidity) at room temperature overnight, followed by purification with NiNTA-agarose and SEC. Biotinylated ligands were stored at 4° C. in 150 mM NaCl, 20 mM Tris-Cl (pH 7.5), 1 mM DTT, 0.02% sodium azide.\nData were collected on an Octet RED96 (Forte Bio) and processed using the instrument's integrated software. […] Biosensors were dipped in solutions containing the analyte of interest to measure association, and transferred back to empty binding buffer for monitoring dissociation. Kinetic constants were determined from the mathematical fit of a 1:1 binding model."}}}
{"molecule": "Index 21: SEQ ID NO: 113; computational precursor for BbpD04 (protein, optionally absent) GFDWKKVLDKAKDLAENDVREAKQKLEEFYKKAMKLDLTQEMRRKLMLEWIAAMLMAIGDIFNAIEQGKQEADKLKKLGKVLSQLLDELKRRLEELKEEAALKAHDFGREFELKLLFG", "values": [{"measurement": "Log2 Enrichment Ratio: 400 nM BHRF1", "setting": "BHRF1", "value": "BHRF1 −2.81"}]}
{"molecule": "MINDI: SEQ ID NO: 2; target Mcl-1 (protein) ADPKKVLDKAKDQAENRVRELKQVLEELYKEARKLDLTQEMRKKLIERYAAAIIRAIGDINNAIYQAKQEAEKLKKAGLVNSQQLDELLRRLDELQKEASRKANEYGREFELKLEY", "values": [{"measurement": "effect on long-term survival (in words)", "setting": "colon cancer cell lines", "value": "negligible effect"}, {"measurement": "effect on Bim binding profile", "setting": "[1]; Bcl-2+ HeLa cells", "value": "no effect"}, {"measurement": "effect on Bim binding profile", "setting": "[1]; wild-type HeLa cells", "value": "displacement of Bim from Mcl-1"}, {"measurement": "decrease in survival", "setting": "Mcl-1-dependent MEF line", "value": "90±11", "unit": "%"}, {"measurement": "Specificity", "setting": "BCL2 family proteins", "value": "93,000"}, {"measurement": "affinity for other BCL2 family members relative to Mcl-1", "setting": "Mcl-1", "value": "over ten thousand-fold weaker affinity"}]}
